T1: human MOG (hMOG) expressed on HEK293, Expi293F or L929 cells (human, UniProt Q16653 30-247)
T1 construct: also called hMOG/HEK293; hMOG/HEK293F
T1 chain: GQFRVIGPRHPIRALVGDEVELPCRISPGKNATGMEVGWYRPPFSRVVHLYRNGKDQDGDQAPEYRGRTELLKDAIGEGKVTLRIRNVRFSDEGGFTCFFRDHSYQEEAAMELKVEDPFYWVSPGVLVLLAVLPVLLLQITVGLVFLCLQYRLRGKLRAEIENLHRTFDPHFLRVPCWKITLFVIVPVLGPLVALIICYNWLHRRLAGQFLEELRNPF

B1: AVM-MOG01 IgG4PE(R409K) antibody (bispecific antibody)
heavy 1: EVQLVESGGGLVQPGRSLKLSCAASGFTFSNYAMAWVRRAPTKGLEWVASISNGGGNTYYRDSVKGRFTISRDDAKNTLYLQMDSLRSEDTATYYCARHGNYIYYGSFFDYWGQGVMVTVSSASTKGPSVFPLAPCSRSTSESTAALGCLVKDYFPEPVTVSWNSGALTSGVHTFPAVLQSSGLYSLSSVVTVPSSSLGTKTYTCNVDHKPSNTKVDKRVESKYGPPCPPCPAPEFEGGPSVFLFPPKPKDTLMISRTPEVTCVVVDVSQEDPEVQFNWYVDGVEVHNAKTKPREEQFNSTYRVVSVLTVLHQDWLNGKEYKCKVSNKGLPSSIEKTISKAKGQPREPQVYTLPPCQEEMTKNQVSLWCLVKGFYPSDIAVEWESNGQPENNYKTTPPVLDSDGSFFLYSKLTVDKSRWQEGNVFSCSVMHEALHNHYTQKSLSLSLGKDYKDDDDK
heavy 2: QVQLQQSGAGLLKPSETLSLTCAVSGGSFSGYYWTWIRQRPGKGLEWIGEINHRGSTDYNPSLKSRVTMSIDTSKSQFSLNLKSVTAADTAVYYCARAAWGSCYDGTCYPAEYFQYWGQGTLVTVSSASTKGPSVFPLAPCSRSTSESTAALGCLVKDYFPEPVTVSWNSGALTSGVHTFPAVLQSSGLYSLSSVVTVPSSSLGTKTYTCNVDHKPSNTKVDKRVESKYGPPCPPCPAPEFEGGPSVFLFPPKPKDTLMISRTPEVTCVVVDVSQEDPEVQFNWYVDGVEVHNAKTKPREEQFNSTYRVVSVLTVLHQDWLNGKEYKCKVSNKGLPSSIEKTISKAKGQPREPQVCTLPPSQEEMTKNQVSLSCAVKGFYPSDIAVEWESNGQPENNYKTTPPVLDSDGSFFLVSKLTVDKSRWQEGNVFSCSVMHEALHNHYTQKSLSLSLGKHHHHHH
light 1: QFVLSQPNSVSTNLGSTVKLSCKRSTGNIGSNYVSWYQQHEGRSPTTMIYRDDKRPDGVPDRFSGSIDRSSDSALLTINNVQTEDEADYFCQSYSSGINIFGGGTKLTVLGQPKAAPSVTLFPPSSEELQANKATLVCLISDFYPGAVTVAWKADSSPVKAGVETTTPSKQSNNKYAASSYLSLTPEQWKSHRSYSCQVTHEGSTVEKTVAPTECS
light 2: QSALTQPASVSGSPGQSITISCTGTSRDVGGYNYVSWYQQHPGKAPKLMIYDVNNRPSGVSNRFSGSKSGNTASLTISGLQAEDEADYFCSSYTSSSTPVVFGGGTKLTVLGQPKAAPSVTLFPPSSEELQANKATLVCLISDFYPGAVTVAWKADSSPVKAGVETTTPSKQSNNKYAASSYLSLTPEQWKSHRSYSCQVTHEGSTVEKTVAPTECS
notes: copies: 1 + 1 + 1 + 1
B2: AVM IgG4PE(R409K)_AVM Fab ANTIBODY (antibody)
heavy 1: not shown
heavy 2: EVQLVESGGGLVQPGRSLKLSCAASGFTFSNYAMAWVRRAPTKGLEWVASISNGGGNTYYRDSVKGRFTISRDDAKNTLYLQMDSLRSEDTATYYCARHGNYIYYGSFFDYWGQGVMVTVSSASTKGPSVFPLAPCSRSTSESTAALGCLVKDYFPEPVTVSWNSGALTSGVHTFPAVLQSSGLYSLSSVVTVPSSSLGTKTYTCNVDHKPSNTKVDKRV
light: QFVLSQPNSVSTNLGSTVKLSCKRSTGNIGSNYVSWYQQHEGRSPTTMIYRDDKRPDGVPDRFSGSIDRSSDSALLTINNVQTEDEADYFCQSYSSGINIFGGGTKLTVLGQPKAAPSVTLFPPSSEELQANKATLVCLISDFYPGAVTVAWKADSSPVKAGVETTTPSKQSNNKYAASSYLSLTPEQWKSHRSYSCQVTHEGSTVEKTVAPTECS
B3: AVM IgG4PE(R409K)_MOG01 Fab antibody (bispecific antibody)
heavy 1: not shown
heavy 2: QVQLQQSGAGLLKPSETLSLTCAVSGGSFSGYYWTWIRQRPGKGLEWIGEINHRGSTDYNPSLKSRVTMSIDTSKSQFSLNLKSVTAADTAVYYCARAAWGSCYDGTCYPAEYFQYWGQGTLVTVSSASTKGPSVFPLAPCSRSTSESTAALGCLVKDYFPEPVTVSWNSGALTSGVHTFPAVLQSSGLYSLSSVVTVPSSSLGTKTYTCNVDHKPSNTKVDKRV
light: QFVLSQPNSVSTNLGSTVKLSCKRSTGNIGSNYVSWYQQHEGRSPTTMIYRDDKRPDGVPDRFSGSIDRSSDSALLTINNVQTEDEADYFCQSYSSGINIFGGGTKLTVLGQPKAAPSVTLFPPSSEELQANKATLVCLISDFYPGAVTVAWKADSSPVKAGVETTTPSKQSNNKYAASSYLSLTPEQWKSHRSYSCQVTHEGSTVEKTVAPTECS
B4: AVM IgG4PE(R409K)_AVMsscFv ANTIBODY (antibody)
heavy 1: EVQLVESGGGLVQPGRSLKLSCAASGFTFSNYAMAWVRRAPTKGLEWVASISNGGGNTYYRDSVKGRFTISRDDAKNTLYLQMDSLRSEDTATYYCARHGNYIYYGSFFDYWGQGVMVTVSSASTKGPSVFPLAPCSRSTSESTAALGCLVKDYFPEPVTVSWNSGALTSGVHTFPAVLQSSGLYSLSSVVTVPSSSLGTKTYTCNVDHKPSNTKVDKRVESKYGPPCPPCPAPEFEGGPSVFLFPPKPKDTLMISRTPEVTCVVVDVSQEDPEVQFNWYVDGVEVHNAKTKPREEQFNSTYRVVSVLTVLHQDWLNGKEYKCKVSNKGLPSSIEKTISKAKGQPREPQVYTLPPCQEEMTKNQVSLWCLVKGFYPSDIAVEWESNGQPENNYKTTPPVLDSDGSFFLYSKLTVDKSRWQEGNVFSCSVMHEALHNHYTQKSLSLSLGGGSGGGGSGGGGSGGGGSEVQLVESGGGLVQPGRSLKLSCAASGFTFSNYAMAWVRRAPTKGLEWVASISNGGGNTYYRDSVKGRFTISRDDAKNTLYLQMDSLRSEDTATYYCARHGNYIYYGSFFDYWGQGVMVTVSSGGGGSGGRASGGGGSQFVLSQPNSVSTNLGSTVKLSCKRSTGNIGSNYVSWYQQHEGRSPTTMIYRDDKRPDGVPDRFSGSIDRSSDSALLTINNVQTEDEADYFCQSYSSGINIFGGGTKLTVLDYKDDDDK
heavy 2: EVQLVESGGGLVQPGRSLKLSCAASGFTFSNYAMAWVRRAPTKGLEWVASISNGGGNTYYRDSVKGRFTISRDDAKNTLYLQMDSLRSEDTATYYCARHGNYIYYGSFFDYWGQGVMVTVSSASTKGPSVFPLAPCSRSTSESTAALGCLVKDYFPEPVTVSWNSGALTSGVHTFPAVLQSSGLYSLSSVVTVPSSSLGTKTYTCNVDHKPSNTKVDKRVESKYGPPCPPCPAPEFEGGPSVFLFPPKPKDTLMISRTPEVTCVVVDVSQEDPEVQFNWYVDGVEVHNAKTKPREEQFNSTYRVVSVLTVLHQDWLNGKEYKCKVSNKGLPSSIEKTISKAKGQPREPQVCTLPPSQEEMTKNQVSLSCAVKGFYPSDIAVEWESNGQPENNYKTTPPVLDSDGSFFLVSKLTVDKSRWQEGNVFSCSVMHEALHNHYTQKSLSLSLGKHHHHHH
light: QFVLSQPNSVSTNLGSTVKLSCKRSTGNIGSNYVSWYQQHEGRSPTTMIYRDDKRPDGVPDRFSGSIDRSSDSALLTINNVQTEDEADYFCQSYSSGINIFGGGTKLTVLGQPKAAPSVTLFPPSSEELQANKATLVCLISDFYPGAVTVAWKADSSPVKAGVETTTPSKQSNNKYAASSYLSLTPEQWKSHRSYSCQVTHEGSTVEKTVAPTECS
B5: AVM IgG4PE(R409K)_MOG01sscFv antibody (bispecific antibody)
heavy 1: EVQLVESGGGLVQPGRSLKLSCAASGFTFSNYAMAWVRRAPTKGLEWVASISNGGGNTYYRDSVKGRFTISRDDAKNTLYLQMDSLRSEDTATYYCARHGNYIYYGSFFDYWGQGVMVTVSSASTKGPSVFPLAPCSRSTSESTAALGCLVKDYFPEPVTVSWNSGALTSGVHTFPAVLQSSGLYSLSSVVTVPSSSLGTKTYTCNVDHKPSNTKVDKRVESKYGPPCPPCPAPEFEGGPSVFLFPPKPKDTLMISRTPEVTCVVVDVSQEDPEVQFNWYVDGVEVHNAKTKPREEQFNSTYRVVSVLTVLHQDWLNGKEYKCKVSNKGLPSSIEKTISKAKGQPREPQVYTLPPCQEEMTKNQVSLWCLVKGFYPSDIAVEWESNGQPENNYKTTPPVLDSDGSFFLYSKLTVDKSRWQEGNVFSCSVMHEALHNHYTQKSLSLSLGGGSGGGGSGGGGSGGGGSQVQLQQSGAGLLKPSETLSLTCAVSGGSFSGYYWTWIRQRPGKGLEWIGEINHRGSTDYNPSLKSRVTMSIDTSKSQFSLNLKSVTAADTAVYYCARAAWGSCYDGTCYPAEYFQYWGQGTLVTVSSGGGGSGGRASGGGGSQSALTQPASVSGSPGQSITISCTGTSRDVGGYNYVSWYQQHPGKAPKLMIYDVNNRPSGVSNRFSGSKSGNTASLTISGLQAEDEADYFCSSYTSSSTPVVFGGGTKLTVLDYKDDDDK
heavy 2: EVQLVESGGGLVQPGRSLKLSCAASGFTFSNYAMAWVRRAPTKGLEWVASISNGGGNTYYRDSVKGRFTISRDDAKNTLYLQMDSLRSEDTATYYCARHGNYIYYGSFFDYWGQGVMVTVSSASTKGPSVFPLAPCSRSTSESTAALGCLVKDYFPEPVTVSWNSGALTSGVHTFPAVLQSSGLYSLSSVVTVPSSSLGTKTYTCNVDHKPSNTKVDKRVESKYGPPCPPCPAPEFEGGPSVFLFPPKPKDTLMISRTPEVTCVVVDVSQEDPEVQFNWYVDGVEVHNAKTKPREEQFNSTYRVVSVLTVLHQDWLNGKEYKCKVSNKGLPSSIEKTISKAKGQPREPQVCTLPPSQEEMTKNQVSLSCAVKGFYPSDIAVEWESNGQPENNYKTTPPVLDSDGSFFLVSKLTVDKSRWQEGNVFSCSVMHEALHNHYTQKSLSLSLGKHHHHHH
light: QFVLSQPNSVSTNLGSTVKLSCKRSTGNIGSNYVSWYQQHEGRSPTTMIYRDDKRPDGVPDRFSGSIDRSSDSALLTINNVQTEDEADYFCQSYSSGINIFGGGTKLTVLGQPKAAPSVTLFPPSSEELQANKATLVCLISDFYPGAVTVAWKADSSPVKAGVETTTPSKQSNNKYAASSYLSLTPEQWKSHRSYSCQVTHEGSTVEKTVAPTECS
notes: copies: 1 + 1 + 2

Columns and labels:
[1] = target: T2, extracellular domain protein of rat MOG to which GST is added at the C-terminus (rMOG-GST) (rat); assay: SPR as in Example 8 (antibody captured, rMOG-GST analyte)
T2 construct: whole construct entry
Procedure: The antibodies were immobilized on CM5 sensor chips using a Human antibody Capture kit, and the binding abilities were evaluated using rMOG-GST produced in Example 4 as an analyte. The obtained sensorgrams were analyzed with BIA evaluation software, and the dissociation constants (KD values) were thus calculated.
Binding of the bispecific antibodies obtained in Example 6 and Example 16 to MOG was evaluated by the same method as that of Example 8.

[2] = target: T1, human MOG (hMOG) expressed on HEK293, …; assay: flow cytometry on L929 cells expressing human MOG (hMOG/L929); antibody titrated, RPE-labelled goat anti-human antibody
Text: pEF6_hMOG obtained in Example 5 was introduced to mouse connective tissue-derived fibroblast L929 cells [American Type Culture Collection (ATCC) No.: CCL-1] using HilyMax (manufactured by Dojindo Laboratories). The gene-transfected cells were selected using an antibiotic substance, Blasticidin (manufactured by Invitrogen) and then cloned by the limiting dilution method. Using the L929 cells expressing hMOG on the cell surface (abbreviated as hMOG/L929 below), the reactivities of the bispecific antibodies were analyzed by the method described below.
The hMOG/L929 cells were suspended in a Staining Buffer (SB) of PBS containing 0.1% NaN₃ and 1% FBS and dispensed to a round-bottom 96-well plate (manufactured by Becton Dickinson). […] After suspending the pellets, the plate was left to stand at ice temperature for 30 minutes. The supernatants were removed after further centrifugation (2000 rpm, 4° C., two minutes), and the pellets were washed with SB. Then, 1 μg/mL RPE fluorescently labeled goat anti-human antibody (manufactured by Southern Biotech) was added, and the plate was incubated at ice temperature for 30 minutes. After washing with SB, the cells were suspended in SB, and the fluorescence intensities of the cells were measured with a flow cytometer FACS CANTO II (manufactured by Becton Dickinson). The results are shown in FIGS. 12A to 12C and FIGS. 13A and 13B.

T2 sequence (chain, as listed by the source limits assumed): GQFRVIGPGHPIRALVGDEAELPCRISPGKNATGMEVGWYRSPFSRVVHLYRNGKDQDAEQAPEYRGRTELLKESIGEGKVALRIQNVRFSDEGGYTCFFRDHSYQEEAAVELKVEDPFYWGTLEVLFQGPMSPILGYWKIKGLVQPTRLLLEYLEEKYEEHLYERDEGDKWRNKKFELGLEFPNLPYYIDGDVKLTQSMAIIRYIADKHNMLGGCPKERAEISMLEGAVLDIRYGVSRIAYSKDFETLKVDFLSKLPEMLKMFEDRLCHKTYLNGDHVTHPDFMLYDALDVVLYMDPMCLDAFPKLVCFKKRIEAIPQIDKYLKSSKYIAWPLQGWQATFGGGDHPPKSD

Row | Binder | Kd [1] [nM] | koff [1] [s⁻¹] | kon [1] [M⁻¹ s⁻¹] | binding result [2]
1 | B1 | 12 | 0.0016 | 130000 | binds
2 | B2 | – | – | – | no binding
3 | B3 | 34 | 0.0035 | 100000 | binds
4 | B4 | – | – | – | no binding
5 | B5 | 200 | 0.01 | 51000 | binds
